Patent US20020151471A1 (published 2002)

Legend:
Assay in all cases: TF binding assay; method not stated in the example
[1] = biological target: T1, Factor VII preparation 2 (recombinant human FVII produced serum-free in CHO clone E11, Example 3) (human, UniProt P08709 61-466, N-linked oligosaccharide chains (Factor VII is normally glycosylated at Asn 145 and Asn 322); 94% of chains contain sialic acid, 13% contain fucosylated antenna)
T1 construct: The preparations differ only in glycoform pattern
T1 sequence (looked up): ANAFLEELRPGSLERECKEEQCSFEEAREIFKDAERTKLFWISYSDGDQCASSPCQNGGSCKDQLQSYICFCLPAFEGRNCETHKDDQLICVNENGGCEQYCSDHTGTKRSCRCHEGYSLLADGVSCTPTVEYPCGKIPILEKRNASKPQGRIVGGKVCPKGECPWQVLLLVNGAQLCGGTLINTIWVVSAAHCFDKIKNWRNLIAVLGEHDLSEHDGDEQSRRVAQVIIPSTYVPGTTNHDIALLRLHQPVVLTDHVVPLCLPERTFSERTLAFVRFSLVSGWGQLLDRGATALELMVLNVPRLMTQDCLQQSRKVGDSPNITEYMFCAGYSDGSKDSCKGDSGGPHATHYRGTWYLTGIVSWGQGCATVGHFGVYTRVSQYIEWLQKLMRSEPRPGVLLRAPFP

[2] = biological target: T2, Factor VII preparation 1 (recombinant human FVII produced serum-free in CHO clone E11, Example 3) (human, UniProt P08709 61-466, N-linked oligosaccharide chains (Factor VII is normally glycosylated at Asn 145 and Asn 322); 98% of chains contain sialic acid, 6% contain fucosylated antenna)
T2 construct: The preparations differ only in glycoform pattern
T2 sequence (looked up): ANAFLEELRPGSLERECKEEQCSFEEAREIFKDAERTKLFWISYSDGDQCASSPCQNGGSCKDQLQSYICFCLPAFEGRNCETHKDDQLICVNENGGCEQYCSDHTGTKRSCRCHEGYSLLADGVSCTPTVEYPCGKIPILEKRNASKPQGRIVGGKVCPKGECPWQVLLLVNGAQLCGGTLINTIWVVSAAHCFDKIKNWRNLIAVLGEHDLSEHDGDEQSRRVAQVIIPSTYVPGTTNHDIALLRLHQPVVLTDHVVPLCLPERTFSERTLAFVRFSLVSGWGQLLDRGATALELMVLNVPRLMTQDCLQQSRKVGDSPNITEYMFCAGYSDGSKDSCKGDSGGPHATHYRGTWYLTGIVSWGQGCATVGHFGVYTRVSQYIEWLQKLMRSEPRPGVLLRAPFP

[3] = biological target: T3, Factor VII preparation 5 (recombinant human FVII produced serum-free in CHO clone E11, Example 3) (human, UniProt P08709 61-466, N-linked oligosaccharide chains (Factor VII is normally glycosylated at Asn 145 and Asn 322); 86% of chains contain sialic acid, 21% contain fucosylated antenna)
T3 construct: The preparations differ only in glycoform pattern
T3 sequence (looked up): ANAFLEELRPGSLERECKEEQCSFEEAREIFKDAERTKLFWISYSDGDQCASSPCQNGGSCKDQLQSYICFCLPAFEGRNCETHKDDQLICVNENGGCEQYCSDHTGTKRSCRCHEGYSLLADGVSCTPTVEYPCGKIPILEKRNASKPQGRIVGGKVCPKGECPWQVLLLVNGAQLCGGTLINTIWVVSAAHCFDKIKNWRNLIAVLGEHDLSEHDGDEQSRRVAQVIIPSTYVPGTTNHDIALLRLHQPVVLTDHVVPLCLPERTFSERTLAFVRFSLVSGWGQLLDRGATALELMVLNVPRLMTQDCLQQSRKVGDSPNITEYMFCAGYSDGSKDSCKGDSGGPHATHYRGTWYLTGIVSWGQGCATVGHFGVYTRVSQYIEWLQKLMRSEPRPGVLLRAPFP

- Kd [1]: 2 nM
- Kd [2]: 2.8 nM
- Kd [3]: 2.8 nM
B1: tissue factor (TF) (receptor, UniProt P13726 33-251, looked up)
chain: SGTTNTVAAYNLTWKSTNFKTILEWEPKPVNQVYTVQISTKSGDWKSKCFYTTDTECDLTDEIVKDVKQTYLARVFSYPAGNVESTGSAGEPLYENSPEFTPYLETNLGQPTIQSFEQVGTKVNVTVEDERTLVRRNNTFLSLRDVFGKDLIYTLYYWKSSSSGKKTAKTNTNEFLIDVDKGENYCFSVQAVIPSRTVNRKSTDSPVECMGQEKGEFRE
